Source: the supplement of paper PMC10567573

B1: TRIM55 (parent)
chain: YKSFSKEQQTMDNLEKQLICPICL

Variants of: B1
Test: protein stability index of a GFP-peptide fusion (GPS, HEK-293T) (PSI 1-6); higher = more stable
Details: c terminus: a fixed tail appended
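Note: lentivirally expressed fusions sorted by FACS into six bins by GFP to DsRed ratio, PSI derived from sequencing read proportions per bin multiplied by bin number.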

Variant | protein stability index
YKSFSPEQQTMDNLEKQLICPICL [K6P] | 2.05
YKSFSEEQQTMDNLEKQLICPICL [K6E] | 2.04
YKSFSHEQQTMDNLEKQLICPICL [K6H] | 1.85
YKSFSAEQQTMDNLEKQLICPICL [K6A] | 2.91
YKSFSLEQQTMDNLEKQLICPICL [K6L] | 2.91
YKSFSKNQQTMDNLEKQLICPICL [E7N] | 2.18
YKSFSKSQQTMDNLEKQLICPICL [E7S] | 1.67
YKSFSKYQQTMDNLEKQLICPICL [E7Y] | 1.72
YKSFSKWQQTMDNLEKQLICPICL [E7W] | 1.83
YKSFSKAQQTMDNLEKQLICPICL [E7A] | 2.08
YKSFSKGQQTMDNLEKQLICPICL [E7G] | 1.53
YKSFSKRQQTMDNLEKQLICPICL [E7R] | 1.87
YKSFSKIQQTMDNLEKQLICPICL [E7I] | 2.4
YKSFSKMQQTMDNLEKQLICPICL [E7M] | 2.37
YKSFSKESQTMDNLEKQLICPICL [Q8S] | 2.29
YKSFSKETQTMDNLEKQLICPICL [Q8T] | 2.17
YKSFSKELQTMDNLEKQLICPICL [Q8L] | 1.75
YKSFSKEHQTMDNLEKQLICPICL [Q8H] | 2.37
YKSFSKEFQTMDNLEKQLICPICL [Q8F] | 1.54
YKSFSKEYQTMDNLEKQLICPICL [Q8Y] | 2
YKSFSKEAQTMDNLEKQLICPICL [Q8A] | 2.65
YKSFSKEQWTMDNLEKQLICPICL [Q9W] | 1.67
YKSFSKEQFTMDNLEKQLICPICL [Q9F] | 1.79
YKSFSKEQTTMDNLEKQLICPICL [Q9T] | 1.57

Variant | protein stability index
YKSFSKEQETMDNLEKQLICPICL [Q9E] | 2.08
YKSFSKEQCTMDNLEKQLICPICL [Q9C] | 2.15
YKSFSKEQLTMDNLEKQLICPICL [Q9L] | 1.87
YKSFSKEQDTMDNLEKQLICPICL [Q9D] | 2.8
YKSFSKEQHTMDNLEKQLICPICL [Q9H] | 1.98
YKGFSKEQQTMDNLEKQLICPICL [S3G] | 1.69
YKLFSKEQQTMDNLEKQLICPICL [S3L] | 1.69
YKDFSKEQQTMDNLEKQLICPICL [S3D] | 2.47
YKVFSKEQQTMDNLEKQLICPICL [S3V] | 2.07
YKAFSKEQQTMDNLEKQLICPICL [S3A] | 2.02
YKSFSKEQQTMDNHEKQLICPICL [L14H] | 2.13
YKSFSKEQQTMDNFEKQLICPICL [L14F] | 1.88
YKSFSKEQQTMDNVEKQLICPICL [L14V] | 2.23
YKSFSKEQQTMDNEEKQLICPICL [L14E] | 3.2
YKSFSKEQQTMDNMEKQLICPICL [L14M] | 2.53
YKSFSKEQQTMDNSEKQLICPICL [L14S] | 2.8
YKSFSKEQQTMDNKEKQLICPICL [L14K] | 2.58
YKSFSKEQQTMDNPEKQLICPICL [L14P] | 2.7
YKSFSKEQQTMDNREKQLICPICL [L14R] | 2.58
YKSFSKEQQTMDNLEKSLICPICL [Q17S] | 1.72
YKSFSKEQQTMDNLEKELICPICL [Q17E] | 2.32
YKSFSKEQQTMDNLEKGLICPICL [Q17G] | 2.16
YKSFSKEQQTMDNLEKTLICPICL [Q17T] | 1.98
YKSFSKEQQTMDNLEKPLICPICL [Q17P] | 1.68

Variant | protein stability index
YKSFSKEQQTMDNLEKWLICPICL [Q17W] | 2.31
YKSFSKEQQTMDNLEKKLICPICL [Q17K] | 2.32
YKSFSKEQQTMDNLEKHLICPICL [Q17H] | 2.23
YWSFSKEQQTMDNLEKQLICPICL [K2W] | 1.96
YFSFSKEQQTMDNLEKQLICPICL [K2F] | 2.09
YASFSKEQQTMDNLEKQLICPICL [K2A] | 2.02
YMSFSKEQQTMDNLEKQLICPICL [K2M] | 2.1
YKSFSKEQQTMDNLEKQLECPICL [I19E] | 3.01
YKSFSKEQQTMDNLEKQLKCPICL [I19K] | 2.55
YKSFSKEQQTMDNLEKQLFCPICL [I19F] | 2.09
YKSFSKEQQTMDNLEKQLMCPICL [I19M] | 1.88
YKSFSKEQQTMDNLEKQLNCPICL [I19N] | 2.71
YKSFSKEQQTMDNLECQLICPICL [K16C] | 1.82
YKSFSKEQQTMDNLENQLICPICL [K16N] | 2.07
YKSFSKEQQTMDNLESQLICPICL [K16S] | 1.81
YKSFSKEQQTMDNLEQQLICPICL [K16Q] | 1.83
YKSFSKEQQTMDNLEWQLICPICL [K16W] | 1.88
YKSFSKEQQGMDNLEKQLICPICL [T10G] | 2.27
YKSFSKEQQSMDNLEKQLICPICL [T10S] | 2.46
YKSFSKEQQYMDNLEKQLICPICL [T10Y] | 1.92
WKSFSKEQQTMDNLEKQLICPICL [Y1W] | 2.17
NKSFSKEQQTMDNLEKQLICPICL [Y1N] | 2.48
GKSFSKEQQTMDNLEKQLICPICL [Y1G] | 2.35
VKSFSKEQQTMDNLEKQLICPICL [Y1V] | 1.97

Variant | protein stability index
KKSFSKEQQTMDNLEKQLICPICL [Y1K] | 2.68
TKSFSKEQQTMDNLEKQLICPICL [Y1T] | 2.62
LKSFSKEQQTMDNLEKQLICPICL [Y1L] | 2.94
EKSFSKEQQTMDNLEKQLICPICL [Y1E] | 2.48
YKSFSKEQQTMDNLEKQLIKPICL [C20K] | 1.88
YKSFSKEQQTMDNLEKQLIIPICL [C20I] | 1.62
YKSFSKEQQTMDNLEKQIICPICL [L18I] | 2.31
YKSFSKEQQTMDNLEKQHICPICL [L18H] | 2.75
YKSFSKEQQTMDNLEKQGICPICL [L18G] | 2.84
YKSFSKEQQTMDNLEKQVICPICL [L18V] | 3.42
YKSFSKEQQTMDNLEKQAICPICL [L18A] | 2.81
YKSFSKEQQTMDNLEKQEICPICL [L18E] | 3.19
YKSFSKEQQTMDNLEKQMICPICL [L18M] | 2.62
YKSFSKEQQTMDNLEKQKICPICL [L18K] | 2.48
YKSFSKEQQTMDNLEKQTICPICL [L18T] | 2.54
YKSYSKEQQTMDNLEKQLICPICL [F4Y] | 2.34
YKSWSKEQQTMDNLEKQLICPICL [F4W] | 1.74
YKSGSKEQQTMDNLEKQLICPICL [F4G] | 2.49
YKSRSKEQQTMDNLEKQLICPICL [F4R] | 2.66
YKSNSKEQQTMDNLEKQLICPICL [F4N] | 2.45
YKSQSKEQQTMDNLEKQLICPICL [F4Q] | 2.37
YKSVSKEQQTMDNLEKQLICPICL [F4V] | 2.24
